B1: MYL5 (parent)
chain: FQFASIDVAGNLDYKALSYVITHG
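Further: lentivirally expressed fusions sorted by FACS into six bins by GFP to DsRed ratio, PSI derived from sequencing read proportions per bin multiplied by bin number.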

The data set covers variants of B1. As to the kind of experiment: protein stability index of a GFP-peptide fusion (GPS, HEK-293T) (PSI 1-6); higher = more stable. The following applies: c terminus: a fixed tail appended.
Regarding FQFAYIDVAGNLDYKALSYVITHG, the protein stability index was determined as 3.17.
As for FQFAWIDVAGNLDYKALSYVITHG, the protein stability index turned out to be 2.62.
Next, FQFASIDSAGNLDYKALSYVITHG: 2.09; FQFASIDRAGNLDYKALSYVITHG: 2.8; FQFASIDHAGNLDYKALSYVITHG: 3.1.
Regarding FQFASIDEAGNLDYKALSYVITHG, the protein stability index was found to be 2.42.
The value for FQFASIDDAGNLDYKALSYVITHG was 4.22; that for FQFASIDKAGNLDYKALSYVITHG was 2.17; that for FQFASIDNAGNLDYKALSYVITHG was 2.44.
The value for FQFASIDMAGNLDYKALSYVITHG was 2.67; that for FQFASIDGAGNLDYKALSYVITHG was 3.17.
Next, FQFASIDWAGNLDYKALSYVITHG: 2.9; FQFASIDPAGNLDYKALSYVITHG: 2.55.
In the case of FQFASIDCAGNLDYKALSYVITHG, the protein stability index was determined as 2.11.
FQFASIDVAGNLPYKALSYVITHG: the protein stability index is 2.51.
The value for FQFASIDVAGNLLYKALSYVITHG was 2.49; that for FQFASIDVAGNLTYKALSYVITHG was 2.23.
The value for FQFASIDVAGNLVYKALSYVITHG was 2.86.
Next, FQFASIDVAGNLAYKALSYVITHG: 3.41; FQFASIDVAGNLNYKALSYVITHG: 3.69.
In the case of FQFASIDVAWNLDYKALSYVITHG, the protein stability index stood at 1.35.
As for FQFASIDVALNLDYKALSYVITHG, the protein stability index amounted to 1.72.
As to FQFASIDVAQNLDYKALSYVITHG, the protein stability index came out at 3.41.
The value for FQFASIDVAHNLDYKALSYVITHG was 1.84; that for FQFASIDVAFNLDYKALSYVITHG was 2.96; that for FQFASIDVAPNLDYKALSYVITHG was 2.92.
The value for FQFASIDVAVNLDYKALSYVITHG was 2.6.
With FQFASIDVANNLDYKALSYVITHG, the protein stability index worked out at 2.84.
Next, FQFASIDVAKNLDYKALSYVITHG: 2.08; FQFASIDVADNLDYKALSYVITHG: 2.05; FQFASIDVAINLDYKALSYVITHG: 2.02.
The value for FQFASIDVAANLDYKALSYVITHG was 2.49.
As to FQFASIDVAENLDYKALSYVITHG, the protein stability index is 3.19.
Next, FQFASHDVAGNLDYKALSYVITHG: 4.
As for FQFASPDVAGNLDYKALSYVITHG, the protein stability index came to 2.43.
Next, FQFASFDVAGNLDYKALSYVITHG: 4.13; FQFASEDVAGNLDYKALSYVITHG: 1.49.
On to FQFASNDVAGNLDYKALSYVITHG, for which the protein stability index was determined as 3.39.
As for FQFASMDVAGNLDYKALSYVITHG, the protein stability index was determined as 3.92.
Next, FQFASTDVAGNLDYKALSYVITHG: 1.66.
The value for FQFASYDVAGNLDYKALSYVITHG was 2.46; that for FQFASGDVAGNLDYKALSYVITHG was 1.26.
The value for FQFASDDVAGNLDYKALSYVITHG was 1.4.
In the case of FQFASQDVAGNLDYKALSYVITHG, the protein stability index turned out to be 2.92.
Next, FQFASADVAGNLDYKALSYVITHG: 2.72.
Next, FQFASSDVAGNLDYKALSYVITHG: 1.18; FQFASIDVFGNLDYKALSYVITHG: 2.33; FQFASIDVKGNLDYKALSYVITHG: 2.71.
FQFASIDVYGNLDYKALSYVITHG: the protein stability index is 4.67.
Consider FQFASIDVHGNLDYKALSYVITHG, for which the protein stability index worked out at 2.26.
For the variant FQFASIDVTGNLDYKALSYVITHG, the protein stability index was 3.01.
Next, FQFASIDVPGNLDYKALSYVITHG: 1.7; FQFASIDVNGNLDYKALSYVITHG: 3.37; FQFASIDVLGNLDYKALSYVITHG: 2.77.
Next, FQFASIDVQGNLDYKALSYVITHG: 1.91; FQFASIDVMGNLDYKALSYVITHG: 3.38; FQFASIDVAGNLDDKALSYVITHG: 2.21.
The value for FQFASIDVAGNLDKKALSYVITHG was 2.48; that for FQFASIDVAGNLDHKALSYVITHG was 2.1.
In the case of FQFASIDVAGNLDEKALSYVITHG, the protein stability index is 1.25.
The value for FQFASIDVAGNLDAKALSYVITHG was 1.82; that for FQFASIDVAGNLDMKALSYVITHG was 2.4.
As for FQFASIDVAGNLDNKALSYVITHG, the protein stability index is 2.27.
In the case of FQFASIDVAGNPDYKALSYVITHG, the protein stability index is 2.88.
Next, FQFASIDVAGNEDYKALSYVITHG: 3.08; FQFASIDVAGNDDYKALSYVITHG: 1.67.
On to FQFASIDVAGNTDYKALSYVITHG, for which the protein stability index came out at 1.83.
FQFASIDVAGNFDYKALSYVITHG: the protein stability index came out at 4.33.
Next, FQFASIDVAGNVDYKALSYVITHG: 2.56; FQFASIDVAGNYDYKALSYVITHG: 2.45.
Next, FQFASIDVAGNKDYKALSYVITHG: 1.98; FQFASIDVAGNCDYKALSYVITHG: 1.24; FQFASIDVAGNQDYKALSYVITHG: 3.21.
The value for FQFASIDVAGNSDYKALSYVITHG was 2.44.
Regarding FQFASIKVAGNLDYKALSYVITHG, the protein stability index worked out at 2.52.
Next, FQFASIIVAGNLDYKALSYVITHG: 3.19.
The value for FQFASIGVAGNLDYKALSYVITHG was 2.38; that for FQFASIYVAGNLDYKALSYVITHG was 3.46; that for FQFASISVAGNLDYKALSYVITHG was 3.9.
Next, FQFASICVAGNLDYKALSYVITHG: 3.48; FQFASIEVAGNLDYKALSYVITHG: 2.83.
For the variant FQFASIRVAGNLDYKALSYVITHG, the protein stability index is 1.11.
In the case of FQFASINVAGNLDYKALSYVITHG, the protein stability index is 2.8.
Next, FQFASIAVAGNLDYKALSYVITHG: 2.72; FQFASIDVAGCLDYKALSYVITHG: 3.05; FQFASIDVAGSLDYKALSYVITHG: 3.23.
Take FQFASIDVAGTLDYKALSYVITHG: the protein stability index was 2.92.
On to FQFASIDVAGKLDYKALSYVITHG, for which the protein stability index is 2.17.
As for FQFASIDVAGWLDYKALSYVITHG, the protein stability index was 2.82.
The value for FQFASIDVAGPLDYKALSYVITHG was 3.96.
Next, FQFASIDVAGALDYKALSYVITHG: 2.52; FQFASIDVAGELDYKALSYVITHG: 2.83; FQFASIDVAGDLDYKALSYVITHG: 1.17.
The value for FQFASIDVAGQLDYKALSYVITHG was 5.1.

The values are drawn from the supplement of paper PMC10567573.
